# In US20060147922A1, “Novel diagnostic and therapeutic methods and reagents therefor” (priority 2002, published 2006):
# Assays:
# [1] = target: GST fusion of mouse importin β1 (PTAC97) (mouse) (UniProt P70168); assay: GST-importin β pull-down of IVT 35S-EDD, autoradiography
# [2] = target: GSTchk2-N (GST fused to chk2 aa 1-225) (human) (UniProt O96017); assay: pre-incubation of GSTchk2-N with the peptide, then pull-down of IVT 35S-EDD (competitor of EDD)
# GSTchk2-N (GST fused to chk2 aa 1-225) (human), sequence (O96017 1-225): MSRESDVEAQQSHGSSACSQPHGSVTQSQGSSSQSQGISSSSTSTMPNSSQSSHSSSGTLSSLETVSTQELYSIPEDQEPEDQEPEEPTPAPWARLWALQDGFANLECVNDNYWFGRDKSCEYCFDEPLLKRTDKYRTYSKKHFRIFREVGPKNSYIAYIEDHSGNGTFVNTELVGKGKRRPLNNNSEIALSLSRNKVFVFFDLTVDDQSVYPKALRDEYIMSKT
# GST fusion of mouse importin β1 (PTAC97) (mouse), sequence (P70168 whole entry, the tested form may be a part): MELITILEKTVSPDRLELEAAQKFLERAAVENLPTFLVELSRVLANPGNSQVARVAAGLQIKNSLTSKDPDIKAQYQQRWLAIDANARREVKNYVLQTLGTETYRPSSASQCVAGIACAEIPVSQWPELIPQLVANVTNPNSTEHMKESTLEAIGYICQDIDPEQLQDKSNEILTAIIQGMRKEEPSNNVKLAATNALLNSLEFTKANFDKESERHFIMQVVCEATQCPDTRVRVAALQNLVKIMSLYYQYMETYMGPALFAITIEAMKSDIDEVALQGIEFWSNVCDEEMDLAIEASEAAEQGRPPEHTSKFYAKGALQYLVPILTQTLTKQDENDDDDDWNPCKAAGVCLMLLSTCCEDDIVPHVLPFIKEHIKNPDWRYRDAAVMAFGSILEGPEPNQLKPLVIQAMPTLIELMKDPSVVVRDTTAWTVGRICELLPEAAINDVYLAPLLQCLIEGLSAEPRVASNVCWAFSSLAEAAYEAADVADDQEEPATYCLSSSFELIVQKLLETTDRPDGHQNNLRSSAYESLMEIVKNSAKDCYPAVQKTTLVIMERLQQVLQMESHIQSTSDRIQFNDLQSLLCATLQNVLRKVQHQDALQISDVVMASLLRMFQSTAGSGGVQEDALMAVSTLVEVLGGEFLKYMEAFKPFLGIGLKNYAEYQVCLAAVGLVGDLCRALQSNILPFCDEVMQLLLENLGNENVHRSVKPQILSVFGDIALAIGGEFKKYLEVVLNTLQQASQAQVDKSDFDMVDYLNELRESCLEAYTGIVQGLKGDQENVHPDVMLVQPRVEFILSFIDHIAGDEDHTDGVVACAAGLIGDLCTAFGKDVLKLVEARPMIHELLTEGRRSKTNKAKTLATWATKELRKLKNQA
percent of the available EDD protein pulled down [1],peptide concentration that abolished binding of EDD to chk2-N [2],Substance
5%,–,"EDD protein, full length (aa 1-2799) (from UniProt O95071 1-2799)"
–,> 50 µM,FHA-binding phosphopeptide RWFDT(P)YLIRR
